Reference: patent US20190085039A1 (OSAKA UNIVERSITY, published 2019)

Target: the molecule itself
Assay: size exclusion gel filtration chromatography (Superdex 200 10/30, 20 mM HEPES pH 7.4, 150 mM NaCl); no self-association, elutes as a monomer
Protocol: The solvent is 20 mM HEPES solution of pH 7.4 containing 150 mM NaCl. The larger the molecular weight/molecular volume, the faster the flow in the column. Therefore, peaks appear on the left side in the figure. The spectra indicated with dotted lines in FIG. 1 show the absorptions of 10 μM DsRed (tetramer), tdTomato (dimer), and mCherry (monomer) in order from the left. […] Since the peak position of mfGFP is almost the same as that of mCherry, it can be said that

B1: monomeric green-yellow fluorescent protein mfGFP (other)
chain: MVSKGEEASGRALFQYPMTSKIELNGEINGKKFKVAGEGFTPSSGRFNMHAYCTTGDLPMSWVVIASPLQYGFHMFAHYPEDITHFFQECFPGSYTLDRTLRMEGDGTLTTHHEYSLEDGCVTSKTTLNASGFDPKGATMTKSFVKQLPNEVKITPHGPNGIRLTSTVLYLKEDGTIQIGTQDCIVTPVGGRKVTQPKAHFLHTQIIQKKDPNDTRDHIVQTELAVAGNLWHGMDELYK
notes: It was purified with an N-terminal polyhistidine tag; not shown: N-terminal polyhistidine tag from the bacterial expression vector pRSETB
  binding result: no binding (tested: 10 µM)
